Experimental data as given in patent US20250326841A1.

How the values were obtained:
[1] = molecular target: mouse TIM-3, membrane bound (mouse) (UniProt Q8VIM0); assay: binding to activated mouse T cells; method not described
[2] = molecular target: mouse TIM-3, membrane bound (mouse) (UniProt Q8VIM0); assay: binding to activated mouse T cells, compared with TIM3.18 binding to human TIM-3; method not described

mouse TIM-3, membrane bound (mouse), sequence (Q8VIM0 20-281): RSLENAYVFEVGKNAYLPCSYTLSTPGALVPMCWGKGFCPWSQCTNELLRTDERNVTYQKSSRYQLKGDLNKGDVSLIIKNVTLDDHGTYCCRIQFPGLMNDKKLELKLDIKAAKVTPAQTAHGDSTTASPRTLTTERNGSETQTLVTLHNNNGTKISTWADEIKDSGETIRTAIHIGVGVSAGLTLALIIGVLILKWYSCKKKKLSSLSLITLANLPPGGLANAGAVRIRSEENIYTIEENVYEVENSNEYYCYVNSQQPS

- EC50 [1]: 1.7 nM
- fold weaker EC50 than TIM3.18 on human TIM-3 [2]: 17 fold
Substance: RMT3-23, rat anti-mouse TIM-3 antibody (Bio-X-Cell)
